Measurements from US7858756B2, “Monoclonal antibodies that selectively recognize methamphetamine and methamphetamine like compounds” (The Board of Trustees of the University of Arkansas, priority 2006, dated 2010).
Substitutions are numbered along the chain they refer to. “Also recorded” adds a separate entry of the source.

Legend:
[1] = (+)AMP self-administration, fixed interval (60 sec) paradigm; format: in vivo, rats; conditions: 100 mg/kg mAb, 0.03 mg/kg (+)AMP per infusion
Procedure: (§1) FIG. 6 presents graphs depicting the effect of mAb4G9 on METH discrimination (Panel A) and AMP self-administration (Panel B) in rats. (A) Rats were trained to discriminate […] and METH and then administered mAb4G9. Drug discrimination dose response curves were then determined for METH. (B) (+)AMP self-administration before and after treatment with mAb4G9 (3-4 rats/time point). Dashed lines are used to show the groupings of responding for (+)AMP before and after mAb. *P<0.05 compared to control group before antibody (open circles).
We also tested the ability of mAb4G9 to block (+)AMP self-administration in a model in which rats responded under a fixed interval (60 sec) paradigm for a dose of 0.03 mg/kg (+)AMP per infusion.

[2] = METH infusion by sc osmotic minipump, serum and brain METH and AMP concentrations after mAb; format: in vivo, rat; conditions: for AMP serum concentrations vs pre-mAb levels / METH serum concentrations vs pre-mAb levels: rat serum, 1 min to 24 hr after mAb, FIG. 7
Procedure: FIG. 7 depicts two graphs showing the effect of mAb6H4 (Panel A) and mAb4G9 (Panel B) on METH (closed circles) and AMP (open circles) concentrations in rat serum. METH was infused using a subcutaneous osmotic minipump and once steady state concentrations were reached, anti-METH mAb was administered. Rats were sacrificed at various time points for determination of serum METH and AMP concentrations.
FIG. 8 depicts two graphs showing the effect of mAb6H4 (Panel A) and mAb4G9 (Panel B) on METH (closed circles) and AMP (open circles) concentrations in the rat brain. METH was infused using a subcutaneous osmotic minipump and once steady state concentrations were reached, anti-METH mAb was administered. Rats were sacrificed at various time points for determination of brain METH and AMP concentrations. One way ANOVA followed by a Dunnett's test was used to compare control and post-mAb METH and AMP values.

[3] = Functional half-life study, 14-day continuous (+)METH infusion, serum concentrations; format: in vivo, rats
Procedure: The best-fit line was determined using a weighted two-compartment pharmacokinetic model.
Serum samples were collected pre-mAb and at time points after mAb administration.

[4] = METH drug discrimination model; format: in vivo, rats; conditions: 600 mg/kg mAb
Procedure: as §1
The in vivo effects of mAb4G9 were examined using a drug discrimination model. mAb4G9 appeared to be an effective and long-lasting antagonist of METH effects in this model (FIG. 6A). The mAb4G9 (600 mg/kg) shifted the dose response curves for at least 7 days. On the first and second day after mAb treatment, the dose response curve was shifted about 4- to 6-fold. When tested again at 7 days after mAb4G9 treatment, the dose response curve was still shifted about 2.5 fold.

[5] = RIA, inhibition of [3H]-(+)METH binding to mAb; conditions: RIA IC50 for METH / RIA IC50 for test ligand
Excerpt: In reference to (+)methamphetamine, the IC50 ratio refers to the ratio of the IC50 for (+)methamphetamine in the presence of labeled (+)methamphetamine to the IC50 for a test ligand in the presence of labeled (+)methamphetamine. The IC50 value is the concentration of test ligand required to inhibit 50% of the labeled (+)methamphetamine binding. For instance, see Table 2 in the Examples.
Determination of immunochemical specificity.

[6] = (+)METH 5.6 mg/kg/day sc minipump, single mAb dose equimolar to body burden

B1: mAb4G9: monoclonal antibody, IgG2b κ, heavy chain SEQ ID NO:25, light chain SEQ ID NO:26, generated against hapten (+)METH MO10-ovalbumin (antibody, listed as Mus musculus)
heavy: EYQLQQSGTVLARPGASVKMSCKASGYTFTSYWMHWVKQRPGQGLEWIGGIYPGNSDTTYNQKFKGKAKLTAVTSTSTAYMELSSLTNEDSAVYYCLYGNYDFDYWGQGTTLTVSSAKTTPPSVYPLAPGCGDTTGSSVTLGCLVKGYFPESVTVTWNSGSLSSSVHTFPALLQSGLYTMSSSVTVPSSTWPSQTVTCSVAHPASSTTVDKKLEPSGPISTINPCPPCKECHKCPAPNLEGGPSVFIFPPNIKDVLMISLTPKVTCVVVDVSEDDPDVQISWFVNNVEVHTAQTQTHREDYNSTIRVVSTLPIQHQDWMSGKEFKCKVNNKDLPSPIERTISKIKGLVRAPQVYILPPPAEQLSRKDVSLTCLVVGFNPGDISVEWTSNGHTEENYKDTAPVLDSDGSYFIYSKLNMKTSKWEKTDSFSCNVRHEGLKNYYLKKTISRSPGK
light: DVQMTQSPSSLSASLGGKVTITCKASQDINKFIAWYQHKPGKGPRLLIHYTSTLQPGIPSRFSGSGSGRDYSFSISNLEPEDIATYYCLQYANLLPWTFGGGTKLEIKRADAAPTVSIFPPSSEQLTSGGASVVCFLNNFYPKDINVKWKIDGSERQNGVLNSWTDQDSKDSTYSMSSTLTLTKDEYERHNSYTCEATHKTSTSPIVKSFNRNEC
number of (+)AMP injections per session [1]: significantly reduced | AMP brain concentrations vs no mAb group ([2]; rat brain, FIG. 8): reduces both METH and AMP concentrations in the brain; also recorded: significantly decreased at the 5 and 30 min time points | METH brain concentrations vs no mAb group ([2]; rat brain, FIG. 8): reduces both METH and AMP concentrations in the brain; also recorded: significantly decreased METH brain concentrations at all time points | AMP serum concentrations vs pre-mAb levels [2]: repartitions AMP into the serum from other compartments; also recorded: maintains significantly elevated serum METH and AMP concentrations 24 h after administration | METH serum concentrations vs pre-mAb levels [2]: maintains significantly elevated serum METH and AMP concentrations 24 h after administration | AMP serum concentrations vs pre-mAb levels ([2]; listed as MAb4G9): significantly increased METH and AMP serum concentrations from 1 min to 24 hrs | METH serum concentrations vs pre-mAb levels ([2]; listed as MAb4G9): significantly increased METH and AMP serum concentrations from 1 min to 24 hrs | serum (+)AMP concentrations compared with pre-mAb [3, 6]: maintained significantly increased concentrations | serum (+)METH concentrations compared with pre-mAb [3, 6]: maintained significantly increased concentrations | time after which mAb still very effective ([3]; continuous (+)METH infusion, single mAb dose): about 2 wks | duration of shift of dose response curves [4]: at least 7 days | shift of METH dose response curve ([4]; 7 days after treatment): about 2.5 fold | Antibody Specificity (IC50 ratio as percent), 4-OH-METH [5]: 10.6% | Antibody Specificity (IC50 ratio as percent), (+)AMP [5]: 34% | Antibody Specificity (IC50 ratio as percent), (+)MDA [5]: 9.0% | Antibody Specificity (IC50 ratio as percent), (+)MDMA [5]: 29% | Antibody Specificity (IC50 ratio as percent), (+)METH [5]: 100% | Antibody Specificity (IC50 ratio as percent), (+)ephedrine [5]: <0.1% | Antibody Specificity (IC50 ratio as percent), (+)norpseudoephedrine [5]: <0.1% | Antibody Specificity (IC50 ratio as percent), (+)phenylpropanolamine [5]: <0.1% | Antibody Specificity (IC50 ratio as percent), (+)pseudoephedrine [5]: 0.4% | Antibody Specificity (IC50 ratio as percent), (−)AMP [5]: 6.3% | Antibody Specificity (IC50 ratio as percent), (−)MDA [5]: 0.2% | Antibody Specificity (IC50 ratio as percent), (−)MDMA [5]: 1.1% | Antibody Specificity (IC50 ratio as percent), (−)METH [5]: 10.2% | Antibody Specificity (IC50 ratio as percent), /-phenylphrine [5]: <0.1% | Antibody Specificity (IC50 ratio as percent), dopamine [5]: <0.1% | Antibody Specificity (IC50 ratio as percent), epinephrine [5]: <0.1% | Antibody Specificity (IC50 ratio as percent), norepinepherine [5]: <0.1% | Antibody Specificity (IC50 ratio as percent), serotonin [5]: <0.1% | Antibody Specificity (IC50 ratio as percent), tyramine [5]: <0.1% | Antibody Specificity (IC50 ratio as percent), β-phenylethylamine [5]: 0.1%

B2: mAb2F11: monoclonal antibody comprising heavy chain SEQ ID NO:19 and light chain SEQ ID NO:21 (antibody, listed as Mus musculus)
heavy: EYQLQQSGTVLARPGASVKMSCKASGYTFTNYWMHWVKQRPGQGLEWIGGIYPGNSDTTYNQKFKGKAKLTAVTSTSTAYMELSSLTNEDSAVYYCLYGNYDFDYWGQGTTLTVSSAKTTAPSVYPLAPVCGDTTGSSVTLGCLVKGYFPEPVTLTWNSGSLSSGVHTFPAVLQSDLYTLSSSVTVTSSTWPSQSITCNVAHPASSTKVDKKIEPRGPTIKPCPPCKCPAPNLLGGPSVFIFPPKIKDVLMISLSPIVTCVVVDVSEDDPDVQISWFVNNVEVHTAQTQTHREDYNSTLRVVSALPIQHQDWMSGKEFKCKVNNKDLPAPIERTISKPKGSVRAPQVYVLPPPEEEMTKKQVTLTCMVTDFMPEDIYVEWTNNGKTELNYKNTEPVLDSDGSYFMYSKLRVEKKNWVERNSYSCSVVHEGLHNHHTTKSFSRTPGK
light: B1 light with V2I, Q27H, I29V, A92T
Antibody Specificity (IC50 ratio as percent), (+)AMP [5]: 33% | Antibody Specificity (IC50 ratio as percent), (+)MDMA [5]: 41% | Antibody Specificity (IC50 ratio as percent), (+)METH [5]: 100%^ | Antibody Specificity (IC50 ratio as percent), (−)AMP [5]: 5.3% | Antibody Specificity (IC50 ratio as percent), (−)MDMA [5]: 0.6% | Antibody Specificity (IC50 ratio as percent), (−)METH [5]: 2.2%
